Test results reported in publication PMC7925532.

Target: EGFR Kinase Domain Duplication (EGFR-KDD), eGFP or mCherry fusion (human) (UniProt P00533)
Experiment: PIE-FCCS (pulsed interleaved excitation fluorescence cross-correlation spectroscopy); live COS-7 cells co-expressing eGFP and mCherry fusions (1:1 plasmids), peripheral membrane, 37 °C, Opti-MEM; stimulated with 2 μg/mL recombinant human EGF; median fraction correlated (ƒc)

EGFR Kinase Domain Duplication (EGFR-KDD), eGFP or mCherry fusion (from UniProt P00533 25-1038; P00533 688-1210) (receptor)
median cross-correlation value (ƒc): 0.17
